What was measured:
[1] = target: the molecule itself; assay: crystal structure; hGALT 20 mg/ml pre-incubated with 5 mM UDP-Glc; vapour diffusion at 20 °C, 0.2 M ammonium sulphate, 30% PEG 8000; two chains in the asymmetric unit; dimer interactions analysed with PISA
[2] = target: the molecule itself; assay: small angle X-ray scattering (SAXS); HPLC-SAXS at 10 mg/ml in 10 mM HEPES pH 7.5, 150 mM NaCl, 0.5 mM TCEP; ab initio envelopes by GASBOR

Protein | stoichiometry N [1] | stoichiometry N [2]
uridylylated human galactose 1-phosphate uridylyltransferase (UMP-hGALT) (enzyme, UniProt P07902 1-379, looked up, UMP covalently bound to His186 (uridylylated), human galactose 1-phosphate uridylyltransferase (GALT, EC 2.7.7.12), full length, from a cDNA clone with the p.Asn314Asp polymorphism; Crystallised after pre-incubation with 5 mM UDP-Glc; for SAXS made by overnight incubation with 2 mM UDP-glucose; also called UMP-GALT; uridylylated hGALT; source: incubated with UDP-glucose; not shown: His6, N-terminal, cleaved) MSRSGTDPQQRQQASEADAAAATFRANDHQHIRYNPLQDEWVLVSAHRMKRPWQGQVEPQLLKTVPRHDPLNPLCPGAIRANGEVNPQYDSTFLFDNDFPALQPDAPSPGPSDHPLFQAKSARGVCKVMCFHPWSDVTLPLMSVPEIRAVVDAWASVTEELGAQYPWVQIFENKGAMMGCSNPHPHCQVWASSFLPDIAQREERSQQAYKSQHGEPLLMEYSRQELLRKERLVLTSEHWLVLVPFWATWPYQTLLLPRRHVRRLPELTPAERDDLASIMKKLLTKYDNLFETSFPYSMGWHGAPTGSEAGANWDHWQLHAHYYPPLLRSATVRKFMVGYEMLAQAQRDLTPEQAAERLRALPEVHYHLGQKDRETATIA | 2 | 
apo human galactose 1-phosphate uridylyltransferase (apo-hGALT) (enzyme, UniProt P07902 1-379, looked up, human galactose 1-phosphate uridylyltransferase (GALT, EC 2.7.7.12), full length, from a cDNA clone with the p.Asn314Asp polymorphism; De-uridylylated form made by overnight incubation with 2 mM glucose 1-phosphate; source: incubated with glucose 1-phosphate; not shown: His6, N-terminal, cleaved) MSRSGTDPQQRQQASEADAAAATFRANDHQHIRYNPLQDEWVLVSAHRMKRPWQGQVEPQLLKTVPRHDPLNPLCPGAIRANGEVNPQYDSTFLFDNDFPALQPDAPSPGPSDHPLFQAKSARGVCKVMCFHPWSDVTLPLMSVPEIRAVVDAWASVTEELGAQYPWVQIFENKGAMMGCSNPHPHCQVWASSFLPDIAQREERSQQAYKSQHGEPLLMEYSRQELLRKERLVLTSEHWLVLVPFWATWPYQTLLLPRRHVRRLPELTPAERDDLASIMKKLLTKYDNLFETSFPYSMGWHGAPTGSEAGANWDHWQLHAHYYPPLLRSATVRKFMVGYEMLAQAQRDLTPEQAAERLRALPEVHYHLGQKDRETATIA |  | 2
human galactose 1-phosphate uridylyltransferase variant p.Gln188Arg, hGALT(p.Q188R) (enzyme, UniProt P07902 1-379, looked up, As purified only the apo enzyme was seen by mass spectrometry; not shown: His6, N-terminal, cleaved) MSRSGTDPQQRQQASEADAAAATFRANDHQHIRYNPLQDEWVLVSAHRMKRPWQGQVEPQLLKTVPRHDPLNPLCPGAIRANGEVNPQYDSTFLFDNDFPALQPDAPSPGPSDHPLFQAKSARGVCKVMCFHPWSDVTLPLMSVPEIRAVVDAWASVTEELGAQYPWVQIFENKGAMMGCSNPHPHCRVWASSFLPDIAQREERSQQAYKSQHGEPLLMEYSRQELLRKERLVLTSEHWLVLVPFWATWPYQTLLLPRRHVRRLPELTPAERDDLASIMKKLLTKYDNLFETSFPYSMGWHGAPTGSEAGANWDHWQLHAHYYPPLLRSATVRKFMVGYEMLAQAQRDLTPEQAAERLRALPEVHYHLGQKDRETATIA |  | 2

Reference: paper PMC5081055, “Molecular basis of classic galactosemia from the structure of human galactose 1-phosphate uridylyltransferase” (Human Molecular Genetics, 2016)
